Legend:
[1] = target: human PD-L1 expressed on 300.19 cells (human) (UniProt Q9NZQ7); assay: FACS competition, PD-1-Ig on hPD-L1 300 cells, mAb 0.12 ug/ml
[2] = target: human PD-L1 expressed on 300.19 cells (human) (UniProt Q9NZQ7); assay: FACS on hPD-L1 300 cells, antibody 10 ug/ml
[3] = target: human PD-L1 expressed on 300.19 cells (human) (UniProt Q9NZQ7); assay: FACS competition, PD-1-Ig on hPD-L1 300 cells, mAb 0.37 ug/ml
[4] = target: human PD-L1 expressed on 300.19 cells (human) (UniProt Q9NZQ7); assay: FACS competition, PD-1-Ig on hPD-L1 300 cells, mAb 0.04 ug/ml
[5] = target: human PD-L1 expressed on 300.19 cells (human) (UniProt Q9NZQ7); assay: FACS blockade, B7-1-hIgG on 300-hPD-L1 cells, mAb '0.0.39' [sic] ug/ml
[6] = target: human PD-L1 expressed on 300.19 cells (human) (UniProt Q9NZQ7); assay: FACS blockade, B7-1-hIgG on 300-hPD-L1 cells, mAb 2.5 ug/ml
[7] = target: human PD-L1 expressed on 300.19 cells (human) (UniProt Q9NZQ7); assay: FACS blockade, B7-1-hIgG on 300-hPD-L1 cells, mAb 0.0098 ug/ml
[8] = target: human PD-L1 expressed on 300.19 cells (human) (UniProt Q9NZQ7); assay: FACS on hPD-L1 300 cells, antibody 1 ug/ml
[9] = target: T1, human PD-L2 expressed on 300.19 cells (human) (UniProt Q9BQ51); assay: FACS competition, PD-1-Ig on hPD-L2 300 cells, mAb 0.04 ug/ml
T1 sequence: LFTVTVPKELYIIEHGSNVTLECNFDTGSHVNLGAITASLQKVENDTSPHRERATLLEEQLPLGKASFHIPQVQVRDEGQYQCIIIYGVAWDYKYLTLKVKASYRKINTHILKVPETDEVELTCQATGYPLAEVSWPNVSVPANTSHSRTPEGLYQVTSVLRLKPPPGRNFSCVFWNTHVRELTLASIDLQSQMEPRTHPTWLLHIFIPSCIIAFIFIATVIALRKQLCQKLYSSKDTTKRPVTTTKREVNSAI

[10] = target: T1, human PD-L2 expressed on 300.19 cells (human); assay: FACS competition, PD-1-Ig on hPD-L2 300 cells, mAb 0.37 ug/ml
[11] = target: human PD-L1 expressed on 300.19 cells (human) (UniProt Q9NZQ7); assay: FACS blockade, B7-1-hIgG on 300-hPD-L1 cells, mAb 0.0195 ug/ml
[12] = target: T1, human PD-L2 expressed on 300.19 cells (human); assay: FACS competition, PD-1-Ig on hPD-L2 300 cells, mAb 30 ug/ml
[13] = target: human PD-L1 expressed on 300.19 cells (human) (UniProt Q9NZQ7); assay: FACS competition, PD-1-Ig on hPD-L1 300 cells, mAb 30 ug/ml
[14] = target: human PD-L1 expressed on 300.19 cells (human) (UniProt Q9NZQ7); assay: FACS blockade, B7-1-hIgG on 300-hPD-L1 cells, mAb 0.313 ug/ml
[15] = target: T1, human PD-L2 expressed on 300.19 cells (human); assay: FACS on hPD-L2 300 cells, antibody 1 ug/ml
[16] = target: human PD-L1 expressed on 300.19 cells (human) (UniProt Q9NZQ7); assay: FACS blockade, B7-1-hIgG on 300-hPD-L1 cells, mAb 0.625 ug/ml
[17] = target: T1, human PD-L2 expressed on 300.19 cells (human); assay: FACS competition, PD-1-Ig on hPD-L2 300 cells, mAb 3.3 ug/ml
[18] = target: human PD-L1 expressed on 300.19 cells (human) (UniProt Q9NZQ7); assay: FACS blockade, B7-1-hIgG on 300-hPD-L1 cells, mAb 5 ug/ml
[19] = target: human PD-L1 expressed on 300.19 cells (human) (UniProt Q9NZQ7); assay: FACS competition, PD-1-Ig on hPD-L1 300 cells, mAb 10 ug/ml
[20] = target: human PD-L1 expressed on 300.19 cells (human) (UniProt Q9NZQ7); assay: FACS competition, PD-1-Ig on hPD-L1 300 cells, mAb 90 ug/ml
[21] = target: human PD-L1 expressed on 300.19 cells (human) (UniProt Q9NZQ7); assay: FACS on hPD-L1 300 cells, antibody 0.1 ug/ml
[22] = target: T1, human PD-L2 expressed on 300.19 cells (human); assay: FACS on hPD-L2 300 cells, antibody 0.1 ug/ml
[23] = target: human PD-L1 expressed on 300.19 cells (human) (UniProt Q9NZQ7); assay: FACS competition, PD-1-Ig on hPD-L1 300 cells, mAb 1.1 ug/ml
[24] = target: T1, human PD-L2 expressed on 300.19 cells (human); assay: FACS on hPD-L2 300 cells, antibody 10 ug/ml
[25] = target: human PD-L1 expressed on 300.19 cells (human) (UniProt Q9NZQ7); assay: FACS blockade, B7-1-hIgG on 300-hPD-L1 cells, mAb 10 ug/ml
[26] = target: human PD-L1 expressed on 300.19 cells (human) (UniProt Q9NZQ7); assay: FACS blockade, B7-1-hIgG on 300-hPD-L1 cells, mAb 0.156 ug/ml
[27] = target: T1, human PD-L2 expressed on 300.19 cells (human); assay: FACS competition, PD-1-Ig on hPD-L2 300 cells, mAb 10 ug/ml
[28] = target: T1, human PD-L2 expressed on 300.19 cells (human); assay: FACS competition, PD-1-Ig on hPD-L2 300 cells, mAb 1.1 ug/ml
[29] = target: human PD-L1 expressed on 300.19 cells (human) (UniProt Q9NZQ7); assay: FACS competition, PD-1-Ig on hPD-L1 300 cells, mAb 3.3 ug/ml
[30] = target: T1, human PD-L2 expressed on 300.19 cells (human); assay: FACS competition, PD-1-Ig on hPD-L2 300 cells, mAb 90 ug/ml
[31] = target: human PD-L1 expressed on 300.19 cells (human) (UniProt Q9NZQ7); assay: FACS blockade, B7-1-hIgG on 300-hPD-L1 cells, mAb 20 ug/ml
[32] = target: human PD-L1 expressed on 300.19 cells (human) (UniProt Q9NZQ7); assay: FACS blockade, B7-1-hIgG on 300-hPD-L1 cells, mAb 0.078 ug/ml
[33] = target: T1, human PD-L2 expressed on 300.19 cells (human); assay: FACS competition, PD-1-Ig on hPD-L2 300 cells, mAb 0.12 ug/ml
[34] = target: human PD-L1 expressed on 300.19 cells (human) (UniProt Q9NZQ7); assay: FACS blockade, B7-1-hIgG on 300-hPD-L1 cells, mAb 1.25 ug/ml

Sequence of UniProt Q9NZQ7 (Q9NZQ7 19-290): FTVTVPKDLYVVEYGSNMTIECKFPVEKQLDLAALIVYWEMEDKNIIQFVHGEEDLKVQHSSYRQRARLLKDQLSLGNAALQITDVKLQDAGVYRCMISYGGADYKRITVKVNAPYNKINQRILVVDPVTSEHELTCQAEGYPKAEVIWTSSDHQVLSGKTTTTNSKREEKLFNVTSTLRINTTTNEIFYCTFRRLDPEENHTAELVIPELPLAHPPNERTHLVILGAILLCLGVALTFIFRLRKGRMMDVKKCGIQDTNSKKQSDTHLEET

B1: 29E.2A3 (antibody, from a related filing, V domains shown)
VH: EVQLQQSGPELVKPGASVKMSCKASGYTFTSYVMHWVKQKPGQGLEWIGYVNPFNDGTKYNEMFKGKATLTSDKSSSTAYMELSSLTSEDSAVYYCARQAWGYPWGQGTLVTVSA
VL: DIVLTQSPASLAVSLGQRATISCRATESVEYYGTSLVQWYQQKPGQPPKLLIYAASSVDSGVPARFSGSGSGTDFSLTIHPVEEDDIAMYFCQQSRRVPYTFGGGTKLEIK
- Mean of PE Signal (bound PD-1-Ig) [1]: 523
- Mean of PE signal [2]: 235000
- Mean of PE Signal (bound PD-1-Ig) [3]: 65
- Mean of PE Signal (bound PD-1-Ig) [4]: 6100
- Mean of PE Signal (bound B7-1-Ig) [5]: 1230
- Mean of PE Signal (bound B7-1-Ig) [6]: 823
- Mean of PE Signal (bound B7-1-Ig) [7]: 2540
- Mean of PE signal [8]: 234000
- Mean of PE Signal (bound PD-1-Ig) [9]: 58800
- Mean of PE Signal (bound PD-1-Ig) [10]: 52900
- Mean of PE Signal (bound B7-1-Ig) [11]: 1710
- Mean of PE Signal (bound PD-1-Ig) [12]: 53900
- Mean of PE Signal (bound PD-1-Ig) [13]: 53
- Mean of PE Signal (bound B7-1-Ig) [14]: 770
- Mean of PE signal [15]: 150
- Mean of PE Signal (bound B7-1-Ig) [16]: 850
- Mean of PE Signal (bound PD-1-Ig) [17]: 56700
- Mean of PE Signal (bound B7-1-Ig) [18]: 853
- Mean of PE Signal (bound PD-1-Ig) [19]: 52
- Mean of PE Signal (bound PD-1-Ig) [20]: 54
- Mean of PE signal [21]: 109000
- Mean of PE signal [22]: 150
- Mean of PE Signal (bound PD-1-Ig) [23]: 51
- Mean of PE signal [24]: 251
- Mean of PE Signal (bound B7-1-Ig) [25]: 797
- Mean of PE Signal (bound B7-1-Ig) [26]: 853
- Mean of PE Signal (bound PD-1-Ig) [27]: 53800
- Mean of PE Signal (bound PD-1-Ig) [28]: 56100
- Mean of PE Signal (bound PD-1-Ig) [29]: 50
- Mean of PE Signal (bound PD-1-Ig) [30]: 55100
- Mean of PE Signal (bound B7-1-Ig) [31]: 811
- Mean of PE Signal (bound B7-1-Ig) [32]: 807
- Mean of PE Signal (bound PD-1-Ig) [33]: 53900
- Mean of PE Signal (bound B7-1-Ig) [34]: 788

Source: patent US20150197571A1
